Test system: Hsp72–DnaJB4 complex
Assay: Luciferase refolding by Hsp72/DnaJB4 in the presence of TPR cochaperones
Type: biochemical
Details: 1 μM Hsp72, 100 nM denatured luciferase, 120 nM DnaJB4; CHIP titration or 10 μM TPR protein; 1 h at 37 °C
Method: Experiments were performed as described ([14]). Briefly, Renilla luciferase (Promega) was denatured in 8 M GdnHCl for 2 h at room temperature. Hsp72 (1 μM) and denatured luciferase (100 nM) were diluted into a working concentration in buffer containing an ATP regenerating system (23 mM Hepes, 120 mM KAc, 1.2 mM MgAc, 15 mM DTT, 61 mM creatine phosphate, 35 units/ml creatine kinase, and 5 ng/μl bovine serum albumin, pH 7.4). A titration series of DnaJB4 was added, and the reaction was initiated with the addition of 2.5 mM ATP. For competition assays with DnaJB4, complexes of Hsp72 (1 μM), denatured luciferase (100 nM), and DnaJB4 (120 nM) were incubated with either a titration of CHIP or 10 μM of indicated TPR protein. In all cases, the assay was allowed to incubate for 1 h at 37 °C in white, 96-well flat-bottom plates (Corning 3990). Luminescence was measured using the SteadyGlo luminescence reagent (Promega), and percent refolded luciferase was calculated using a standard curve of 100 to 0 nM native luciferase.

- effect on client (luciferase) refolding by Hsp72–DnaJB4: strongly promoted luciferase refolding
B1: DnaJC7: TPR cochaperone that also contains a J-domain (protein, UniProt Q99615 2-494, looked up)
DnaJ homolog subfamily C …: AAAAECDVVMAATEPELLDDQEAKREAETFKEQGNAYYAKKDYNEAYNYYTKAIDMCPKNASYYGNRAATLMMLGRFREALGDAQQSVRLDDSFVRGHLREGKCHLSLGNAMAACRSFQRALELDHKNAQAQQEFKNANAVMEYEKIAETDFEKRDFRKVVFCMDRALEFAPACHRFKILKAECLAMLGRYPEAQSVASDILRMDSTNADALYVRGLCLYYEDCIEKAVQFFVQALRMAPDHEKACIACRNAKALKAKKEDGNKAFKEGNYKLAYELYTEALGIDPNNIKTNAKLYCNRGTVNSKLRKLDDAIEDCTNAVKLDDTYIKAYLRRAQCYMDTEQYEEAVRDYEKVYQTEKTKEHKQLLKNAQLELKKSKRKDYYKILGVDKNASEDEIKKAYRKRALMHHPDRHSGASAEVQKEEEKKFKEVGEAFTILSDPKKKTRYDSGQDLDEEGMNMGDFDPNNIFKAFFGGPGGFSFEASGPGNFFFQFG

Reference: PMC8913300, “Two distinct classes of cochaperones compete for the EEVD motif in heat shock protein 70 to tune its chaperone activities” (The Journal of Biological Chemistry, 2022)
